Reference: patent publication EP4653453A1

Biological target: single antigen M1 peptide segment (monkeypox virus M1 protein) (Monkeypox virus isolate MPXV_USA_2022_MA001) (UniProt M1LBP0)
Test: SPR

Sequence of UniProt M1LBP0 (M1LBP0 2-181 limits assumed): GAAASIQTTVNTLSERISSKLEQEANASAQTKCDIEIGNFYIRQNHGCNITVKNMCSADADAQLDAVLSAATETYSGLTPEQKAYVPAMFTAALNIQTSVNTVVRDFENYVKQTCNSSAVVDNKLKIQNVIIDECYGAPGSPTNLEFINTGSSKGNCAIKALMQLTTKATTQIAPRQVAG

Substance: neutralizing antibody 7D11
- Kd: 3.3 nM
